# Experimental data reported in publication PMC9352680, “A comprehensive thermodynamic model for RNA binding by the Saccharomyces cerevisiae Pumilio protein PUF4”.
# T1: PUF4 RNA-binding domain (Saccharomyces cerevisiae, UniProt P25339 537-888)
# T1 sequence: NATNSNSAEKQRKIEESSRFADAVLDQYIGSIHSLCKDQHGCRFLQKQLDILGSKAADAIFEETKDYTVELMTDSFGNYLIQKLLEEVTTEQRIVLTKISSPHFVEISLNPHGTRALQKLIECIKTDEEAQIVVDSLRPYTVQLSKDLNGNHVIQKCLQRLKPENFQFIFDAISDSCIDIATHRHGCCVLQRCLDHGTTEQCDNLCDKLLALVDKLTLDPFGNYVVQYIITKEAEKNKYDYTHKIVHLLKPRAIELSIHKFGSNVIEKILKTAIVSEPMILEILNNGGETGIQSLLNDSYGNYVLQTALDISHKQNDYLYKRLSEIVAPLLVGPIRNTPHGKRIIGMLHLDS
# Target: T1, PUF4 RNA-binding domain
# Assay: Mg; RNA-MaP; 20 mM Na-HEPES pH 7.4, 30 mM KOAc, 0.75 mM MgCl2, 0.1% Tween-20, 5% glycerol, 0.1 mg/mL BSA, 2 mM DTT; 25 C; 0.0125-409.6 nM protein
# Conditions: tags: N-His6-TEV cleaved; C-SNAP kept, Cy3B-labelled; label: tethered on chip by stalled RNA polymerase
row,Binder,Kd [nM]
1,UCUCUUCUUAUAUUAUCUCUU (ssRNA) [Ib_S1_P4E.1_K4.1_C4.1_H4.1_[T1C]_[G2T]_A4.1_F4.1_T4.1],685
2,UCUCUUAGCACACUAUAUAUCUCUU (ssRNA) [Id_i_S1_P3E.7_K3.3_C3.3_[T-3A]_[C-2G]_[T-1C]_H3.3_A3.1_F3.1_T3.2],> 2300
3,UCUCUUAUCUAUAUAUAUAUCUCUU (ssRNA) [Id_i_S1_P3E.6_K3.2_C3.3_[T-3A]_[C-2T]_[T-1C]_H3.2_A3.1_F3.1_T3.2],650
4,UCUCUUGUUAUAUUAUCUCUU (ssRNA) [Ib_S1_P4E.1_K4.1_C4.1_H4.1_[T1G]_[G2T]_A4.1_F4.1_T4.1],12.3
5,UCUCUUAUCACACUAUAUAUCUCUU (ssRNA) [Id_i_S1_P3E.7_K3.3_C3.3_[T-3A]_[C-2T]_[T-1C]_H3.3_A3.1_F3.1_T3.2],1520
6,UCUCUUAAAACACUAUAUAUCUCUU (ssRNA) [Id_i_S1_P3E.7_K3.3_C3.3_[T-3A]_[C-2A]_[T-1A]_H3.3_A3.1_F3.1_T3.2],2250
7,UCUCUUCUCUAUAUAUAUAUCUCUU (ssRNA) [Id_i_S1_P3E.6_K3.2_C3.3_[T-3C]_[C-2T]_[T-1C]_H3.2_A3.1_F3.1_T3.2],389
8,UCUCUUCAAACACUAUAUAUCUCUU (ssRNA) [Id_i_S1_P3E.7_K3.3_C3.3_[T-3C]_[C-2A]_[T-1A]_H3.3_A3.1_F3.1_T3.2],2040
9,UCUCUUAAAUAUAUAUAUAUCUCUU (ssRNA) [Id_i_S1_P3E.6_K3.2_C3.3_[T-3A]_[C-2A]_[T-1A]_H3.2_A3.1_F3.1_T3.2],1040
10,UCUCUUGGCACACUAUAUAUCUCUU (ssRNA) [Id_i_S1_P3E.7_K3.3_C3.3_[T-3G]_[C-2G]_[T-1C]_H3.3_A3.1_F3.1_T3.2],821
11,UCUCUUCUAACACUAUAUAUCUCUU (ssRNA) [Id_i_S1_P3E.7_K3.3_C3.3_[T-3C]_[C-2T]_[T-1A]_H3.3_A3.1_F3.1_T3.2],> 2300
12,UCUCUUGUCACACUAUAUAUCUCUU (ssRNA) [Id_i_S1_P3E.7_K3.3_C3.3_[T-3G]_[C-2T]_[T-1C]_H3.3_A3.1_F3.1_T3.2],39
13,UCUCUUCCUAUAUUAUCUCUU (ssRNA) [Ib_S1_P4E.1_K4.1_C4.1_H4.1_[T1C]_[G2C]_A4.1_F4.1_T4.1],1290
14,UCUCUUCUAUAUAUAUAUAUCUCUU (ssRNA) [Id_i_S1_P3E.6_K3.2_C3.3_[T-3C]_[C-2T]_[T-1A]_H3.2_A3.1_F3.1_T3.2],341
15,UCUCUUGCUAUAUUAUCUCUU (ssRNA) [Ib_S1_P4E.1_K4.1_C4.1_H4.1_[T1G]_[G2C]_A4.1_F4.1_T4.1],481
16,Id_i_S2_P3E.5_K3.1_C3.3_[T-3G]_[C-2T]_[T-1C]_H3.1_A3.1_F3.1_T3.2 (ssRNA) RNA: UUUGAUUAAUAUGAUAUCGUUCUUUCUGUCUGUAUAUAUAUUCUUUCUCGAUAUCAUAUUAAUCUUU,2.83
17,Id_i_S2_P3E.7_K3.3_C3.3_[T-3C]_[C-2A]_[T-1C]_H3.3_A3.1_F3.1_T3.2 (ssRNA) RNA: UUUGAUUAAUAUGAUAUCGUUCUUUCUCACACACUAUAUAUUCUUUCUCGAUAUCAUAUUAAUCUUU,482
18,Id_i_S2_P3E.6_K3.2_C3.3_[T-3C]_[C-2G]_[T-1C]_H3.2_A3.1_F3.1_T3.2 (ssRNA) RNA: UUUGAUUAAUAUGAUAUCGUUCUUUCUCGCUAUAUAUAUAUUCUUUCUCGAUAUCAUAUUAAUCUUU,68.2
19,Id_i_S2_P3E.5_K3.1_C3.3_[T-3C]_[C-2T]_[T-1C]_H3.1_A3.1_F3.1_T3.2 (ssRNA) RNA: UUUGAUUAAUAUGAUAUCGUUCUUUCUCUCUGUAUAUAUAUUCUUUCUCGAUAUCAUAUUAAUCUUU,0.917
20,Id_i_S2_P3E.5_K3.1_C3.3_[T-3C]_[C-2A]_[T-1C]_H3.1_A3.1_F3.1_T3.2 (ssRNA) RNA: UUUGAUUAAUAUGAUAUCGUUCUUUCUCACUGUAUAUAUAUUCUUUCUCGAUAUCAUAUUAAUCUUU,1.09
21,Id_i_S2_P3E.6_K3.2_C3.3_[T-3A]_[C-2G]_[T-1C]_H3.2_A3.1_F3.1_T3.2 (ssRNA) RNA: UUUGAUUAAUAUGAUAUCGUUCUUUCUAGCUAUAUAUAUAUUCUUUCUCGAUAUCAUAUUAAUCUUU,528
22,Id_i_S2_P3E.7_K3.3_C3.3_[T-3C]_[C-2A]_[T-1G]_H3.3_A3.1_F3.1_T3.2 (ssRNA) RNA: UUUGAUUAAUAUGAUAUCGUUCUUUCUCAGACACUAUAUAUUCUUUCUCGAUAUCAUAUUAAUCUUU,610
23,Id_i_S2_P3E.5_K3.1_C3.3_[T-3A]_[C-2T]_[T-1C]_H3.1_A3.1_F3.1_T3.2 (ssRNA) RNA: UUUGAUUAAUAUGAUAUCGUUCUUUCUAUCUGUAUAUAUAUUCUUUCUCGAUAUCAUAUUAAUCUUU,1.7
24,Id_i_S2_P3E.6_K3.2_C3.3_[T-3A]_[C-2T]_[T-1C]_H3.2_A3.1_F3.1_T3.2 (ssRNA) RNA: UUUGAUUAAUAUGAUAUCGUUCUUUCUAUCUAUAUAUAUAUUCUUUCUCGAUAUCAUAUUAAUCUUU,170
25,Id_i_S2_P3E.5_K3.1_C3.3_[T-3A]_[C-2A]_[T-1C]_H3.1_A3.1_F3.1_T3.2 (ssRNA) RNA: UUUGAUUAAUAUGAUAUCGUUCUUUCUAACUGUAUAUAUAUUCUUUCUCGAUAUCAUAUUAAUCUUU,1.39

row,Binder,Kd [nM]
1,Id_i_S2_P3E.6_K3.2_C3.3_[T-3C]_[C-2T]_[T-1C]_H3.2_A3.1_F3.1_T3.2 (ssRNA) RNA: UUUGAUUAAUAUGAUAUCGUUCUUUCUCUCUAUAUAUAUAUUCUUUCUCGAUAUCAUAUUAAUCUUU,35
2,Id_i_S2_P3E.5_K3.1_C3.3_[T-3C]_[C-2T]_[T-1A]_H3.1_A3.1_F3.1_T3.2 (ssRNA) RNA: UUUGAUUAAUAUGAUAUCGUUCUUUCUCUAUGUAUAUAUAUUCUUUCUCGAUAUCAUAUUAAUCUUU,3.83
3,Id_i_S2_P3E.6_K3.2_C3.3_[T-3G]_[C-2G]_[T-1C]_H3.2_A3.1_F3.1_T3.2 (ssRNA) RNA: UUUGAUUAAUAUGAUAUCGUUCUUUCUGGCUAUAUAUAUAUUCUUUCUCGAUAUCAUAUUAAUCUUU,1300
4,Id_i_S2_P3E.6_K3.2_C3.3_[T-3A]_[C-2A]_[T-1C]_H3.2_A3.1_F3.1_T3.2 (ssRNA) RNA: UUUGAUUAAUAUGAUAUCGUUCUUUCUAACUAUAUAUAUAUUCUUUCUCGAUAUCAUAUUAAUCUUU,105
5,Id_i_S2_P3E.5_K3.1_C3.3_[T-3A]_[C-2G]_[T-1C]_H3.1_A3.1_F3.1_T3.2 (ssRNA) RNA: UUUGAUUAAUAUGAUAUCGUUCUUUCUAGCUGUAUAUAUAUUCUUUCUCGAUAUCAUAUUAAUCUUU,2.13
6,Id_i_S2_P3E.7_K3.3_C3.3_[T-3G]_[C-2T]_[T-1A]_H3.3_A3.1_F3.1_T3.2 (ssRNA) RNA: UUUGAUUAAUAUGAUAUCGUUCUUUCUGUAACACUAUAUAUUCUUUCUCGAUAUCAUAUUAAUCUUU,5.76
7,Id_i_S2_P3E.6_K3.2_C3.3_[T-3C]_[C-2A]_[T-1C]_H3.2_A3.1_F3.1_T3.2 (ssRNA) RNA: UUUGAUUAAUAUGAUAUCGUUCUUUCUCACUAUAUAUAUAUUCUUUCUCGAUAUCAUAUUAAUCUUU,68.5
8,Id_i_S2_P3E.5_K3.1_C3.3_[T-3C]_[C-2T]_[T-1G]_H3.1_A3.1_F3.1_T3.2 (ssRNA) RNA: UUUGAUUAAUAUGAUAUCGUUCUUUCUCUGUGUAUAUAUAUUCUUUCUCGAUAUCAUAUUAAUCUUU,1.23
9,Id_i_S2_P3E.7_K3.3_C3.3_[T-3C]_[C-2T]_[T-1A]_H3.3_A3.1_F3.1_T3.2 (ssRNA) RNA: UUUGAUUAAUAUGAUAUCGUUCUUUCUCUAACACUAUAUAUUCUUUCUCGAUAUCAUAUUAAUCUUU,214
10,UCUCUUCAAUAUAUAUAUAUCUCUU (ssRNA) [Id_i_S1_P3E.6_K3.2_C3.3_[T-3C]_[C-2A]_[T-1A]_H3.2_A3.1_F3.1_T3.2],777
11,UCUCUUAACACACUAUAUAUCUCUU (ssRNA) [Id_i_S1_P3E.7_K3.3_C3.3_[T-3A]_[C-2A]_[T-1C]_H3.3_A3.1_F3.1_T3.2],2180
12,UCUCUUCUCACACUAUAUAUCUCUU (ssRNA) [Id_i_S1_P3E.7_K3.3_C3.3_[T-3C]_[C-2T]_[T-1C]_H3.3_A3.1_F3.1_T3.2],> 2300
13,Id_ii_S2_P3E.2_K3.1_C3.2_[C-2T]_[T-1G]_H3.1_A3.1_F3.1_T3.2 (ssRNA) RNA: UUUGAUUAAUAUGAUAUCGUUCUUUCUUGUGUAUAUAUAUUCUUUCUCGAUAUCAUAUUAAUCUUU,1.57
14,Id_i_S2_P3E.2_K3.1_C3.2_[C-2T]_[T-1C]_H3.1_A3.1_F3.1_T3.2 (ssRNA) RNA: UUUGAUUAAUAUGAUAUCGUUCUUUCUUCUGUAUAUAUAUUCUUUCUCGAUAUCAUAUUAAUCUUU,1.18
15,Id_i_S2_P3E.2_K3.1_C3.2_[C-2T]_[T-1A]_H3.1_A3.1_F3.1_T3.2 (ssRNA) RNA: UUUGAUUAAUAUGAUAUCGUUCUUUCUUAUGUAUAUAUAUUCUUUCUCGAUAUCAUAUUAAUCUUU,4.51
16,Id_ii_S2_P3E.4_K3.3_C3.2_[C-2A]_[T-1A]_H3.3_A3.1_F3.1_T3.2 (ssRNA) RNA: UUUGAUUAAUAUGAUAUCGUUCUUUCUAAACACUAUAUAUUCUUUCUCGAUAUCAUAUUAAUCUUU,238
17,Id_ii_S2_P3E.3_K3.2_C3.2_[C-2T]_[T-1C]_H3.2_A3.1_F3.1_T3.2 (ssRNA) RNA: UUUGAUUAAUAUGAUAUCGUUCUUUCUUCUAUAUAUAUAUUCUUUCUCGAUAUCAUAUUAAUCUUU,71.4
18,Id_i_S2_P3E.3_K3.2_C3.2_[C-2T]_[T-1A]_H3.2_A3.1_F3.1_T3.2 (ssRNA) RNA: UUUGAUUAAUAUGAUAUCGUUCUUUCUUAUAUAUAUAUAUUCUUUCUCGAUAUCAUAUUAAUCUUU,560
19,Id_ii_S2_P3E.4_K3.3_C3.2_[C-2T]_[T-1C]_H3.3_A3.1_F3.1_T3.2 (ssRNA) RNA: UUUGAUUAAUAUGAUAUCGUUCUUUCUUCACACUAUAUAUUCUUUCUCGAUAUCAUAUUAAUCUUU,222
20,Id_ii_S2_P3E.4_K3.3_C3.2_[C-2A]_[T-1C]_H3.3_A3.1_F3.1_T3.2 (ssRNA) RNA: UUUGAUUAAUAUGAUAUCGUUCUUUCUACACACUAUAUAUUCUUUCUCGAUAUCAUAUUAAUCUUU,242
21,Id_ii_S2_P3E.2_K3.1_C3.2_[C-2A]_[T-1C]_H3.1_A3.1_F3.1_T3.2 (ssRNA) RNA: UUUGAUUAAUAUGAUAUCGUUCUUUCUACUGUAUAUAUAUUCUUUCUCGAUAUCAUAUUAAUCUUU,1.6
22,Id_ii_S2_P3E.4_K3.3_C3.2_[C-2T]_[T-1A]_H3.3_A3.1_F3.1_T3.2 (ssRNA) RNA: UUUGAUUAAUAUGAUAUCGUUCUUUCUUAACACUAUAUAUUCUUUCUCGAUAUCAUAUUAAUCUUU,215
23,Id_ii_S2_P3E.3_K3.2_C3.2_[C-2A]_[T-1C]_H3.2_A3.1_F3.1_T3.2 (ssRNA) RNA: UUUGAUUAAUAUGAUAUCGUUCUUUCUACUAUAUAUAUAUUCUUUCUCGAUAUCAUAUUAAUCUUU,66.8
24,UCUCUUCACUAUAUAUAUAUCUCUU (ssRNA) [Id_i_S1_P3E.6_K3.2_C3.3_[T-3C]_[C-2A]_[T-1C]_H3.2_A3.1_F3.1_T3.2],144
25,UCUCUUAGCUAUAUAUAUAUCUCUU (ssRNA) [Id_i_S1_P3E.6_K3.2_C3.3_[T-3A]_[C-2G]_[T-1C]_H3.2_A3.1_F3.1_T3.2],805
